Source: article doi:10.1101/2024.11.04.618112

Target: His10-pA-Tn5 (recombinant protein A-Tn5 transposase with an N-terminal His10-tag) (Escherichia coli) (UniProt Q46731)
Test: SEC

stoichiometry N: 2
Substance: His10-pA-Tn5 (recombinant protein A-Tn5 transposase with an N-terminal His10-tag) (from UniProt Q46731 1-476) (enzyme)
